Biological target: GST-tagged T. marianensis hinT H100N (Thermaerobacter marianensis)
Assay: BLI; GST-hinT (90 nM) immobilised on anti-GST biosensors; sucA-AMP 500 to 7.81 nM, unmodified sucA at 500 nM; 10 mM Tris pH 8, 150 mM NaCl, 0.1% Triton X-100; KD from steady-state responses, one site

Kd: 9 nM
B1: AMPylated sucA (enzyme)
chain: MQNSALKAWLDSSYLSGANQSWIEQLYEDFLTDPDSVDANWRSTFQQLPGTGVKPDQFHSQTREYFRRLAKDASRYSSTISDPDTNVKQVKVLQLINAYRFRGHQHANLDPLGLWQQDKVADLDPSFHDLTEADFQETFNVGSFASGKETMKLGELLEALKQTYCGPIGAEYMHITSTEEKRWIQQRIESGRATFNSEEKKRFLSELTAAEGLERYLGAKFPGAKRFSLEGGDALIPMLKEMIRHAGNSGTREVVLGMAHRGRLNVLVNVLGKKPQDLFDEFAGKHKEHLGTGDVKYHMGFSSDFQTDGGLVHLALAFNPSHLEIVSPVVIGSVRARLDRLDEPSSNKVLPITIHGDAAVTGQGVVQETLNMSKARGYEVGGTVRIVINNQVGFTTSNPLDARSTPYCTDIGKMVQAPIFHVNADDPEAVAFVTRLALDFRNTFKRDVFIDLVCYRRHGHNEADEPSATQPLMYQKIKKHPTPRKIYADKLEQEKVATLEDATEMVNLYRDALDAGDCVVAEWRPMNMHSFTWSPYLNHEWDEEYPNKVEMKRLQELAKRISTVPEAVEMQSRVAKIYGDRQAMAAGEKLFDWGGAENLAYATLVDEGIPVRLSGEDSGRGTFFHRHAVIHNQSNGSTYTPLQHIHNGQGAFRVWDSVLSEEAVLAFEYGYATAEPRTLTIWEAQFGDFANGAQVVIDQFISSGEQKWGRMCGLVMLLPHGYEGQGPEHSSARLERYLQLCAEQNMQVCVPSTPAQVYHMLRRQALRGMRRPLVVMSPKSLLRHPLAVSSLEELANGTFLPAIGEIDELDPKGVKRVVMCSGKVYYDLLEQRRKNNQHDVAIVRIEQLYPFPHKAMQEVLQQFAHVKDFVWCQEEPLNQGAWYCSQHHFREVIPFGASLRYAGRPASASPAVGYMSVHQKQQQDLVNDALNVE
modifications: multiple AMPylation sites, residues not given

Source: paper PMC12375108
